Laboratory results reported in publication PMC9491710 (Science Advances, 2022).

Tests used:
[1] = target: the molecule itself; assay: crystal structure
[2] = target: the molecule itself; assay: crystal structure; remark: listed apart in the source
[3] = target: the molecule itself; assay: crystal structure; remark: listed apart in the source
[4] = target: the molecule itself; assay: cryo-EM structure

B1: isolated DH3 domain (amino acids 1135 to 1434 of BBR47_39880) (domain or fragment, UniProt C0ZGQ6 1135-1434, looked up)
chain: SSTGVGVIHPFLHQNTSDFMEQRFSSMFTGQEFFLSDHVIKGQRVLPSAAYLEMARAAIQQATGGLDSERELEGLRFKNVVWTQPLAVGPEPVQAHIELYPEANGEIVFEIYSDSKQDRDQTTEIVHSQGSAVLCSIPDIPSFDLSVLQEQCSLRTLSAEQCYDAFKKMGVDYGPAHRGIEQILIGQEQVLAKLSLPSSVVKTQGQFGLHPSLLDAALQSSLGLMMATSDFSLILPFALEEMVIVGDCSSSMWALIRYREGSKAGDRVEKFDIDLCDENGNVQVRMKGFSTRKIANVSVR
In the case of B1, the “stoichiometry N” value [1] is reported as 2.

B2: isolated KS4 domain (amino acids 1587 to 2220 of BBR47_39880) (domain or fragment, UniProt C0ZGQ6 1587-2220, looked up)
chain: PPKGALDIAIIGISGRYPQARNIHDFWKNLRDGKDCITEIPKDRWDHSLYFDEAKDKLGKSYSKWGGFIDGVDQFDPLFFHISPREAELMDPQERLFLQCVYETIEDAGYTRETLGKHEGLGGNVGVYVGVMYEEYQLYASAEQALGRALAIAGSPASIANRVSYFCNFHGPSMAVDTMCSSSLTGIHLACHSLQRGECEVAIAGGVNVSIHPNKYLYLSQGKFASSKGRCESFGEGGDGYVPGEGVGAVLLKPLARAIADGDHIYGVIKGSAINHGGKTNGYTVPNPHSQSRVIRRAFEEAGIHPRTVSYIEAHGTGTSLGDPIEIAGLTKTFQEYTKENQFCAIGSAKSNIGHGESAAGIAGLTKILLQMKYKRLVPSLHSRTLNPNIDFSKTPFVVQQELAEWKRPVIEIDGVTREYARIAGISSFGAGGANAHLVIEEYIEAEHRPPSSISSKNPAVIVLSAKNKDRLREQVQRLLSAIREQVLTDNDLAEIAYTLQVGREAMEERFAVIVKSISELEAKLTYYLKDEADSPDLFTGQVKRNKETMDVFAADEDLQQAIDTWITKGKYAKILQMWVQGLIFDWNKLYGDTKPRRISLPAYPFARERYWLPKVESQAIGLTAGEPAYLHPL
In the case of B2, the “stoichiometry N” value [2] is reported as 2.

B3: isolated KS3 domain (amino acids 532 to 1135 of BBR47_39880) (domain or fragment, UniProt C0ZGQ6 532-1135, looked up)
chain: SPSSVVRDVAIIGLSGRYPQAKNVDEFWNRLKEGKNCISEIPKDRWDWQSFFDEEKGKKESMYTKWGGFIDDMDKFDPLFFQISPKEAEEMDPQERLFLQEAYASIEDAGYTPTTLCESRKVGVFVGVMNGNYPTGATYWSIANRLSYLLNFQGPSVAVDTACSASLTAIHFALESLYSGTSECAIAGGVNLIVDPVHYMKLSALTMLSPSNQCKSFGDQADGFVDGEGVGAIVLKPLDKAIADGDHIYGVIKGSMMNAGGKTNGYTVPNPQAQAQLVADALQRANVHARTVSYLEAHGTGTELGDPIEVAGLTRAFEKDTQDKQFCALGSAKSNIGHCESAAGIAGVTKILLQLKHAQLVPSLHSRTLNPNIDFTKTPFVVQQELAEWRRPIVEINGTTNEYPRIAGISSFGAGGSNAHVIIEEYIPEEQKQSSLKITPQNPAIFVLSAKNAERLYEIVQQLLAFIQEHSLSDEHLADMAYTLQVGRVAMEERIAVIAGTMKELQQKLTAYVKGQEHIADLYRGQVNRNQEMLDILTSDDELEETIARWMERGKYSKLLDLWVKGLSIDWNKLYQEEQPGRISLPTYPFAKESYWTHARSVSS
B3 was tested, and the “stoichiometry N” value [3] was 2.

B4: K3DAK4 bimodule core (KS3-DH3-ACP-KS4 fragment of BBR47_39880, amino acids 532 to 2220) (domain or fragment, UniProt C0ZGQ6 532-2220, looked up)
chain: SPSSVVRDVAIIGLSGRYPQAKNVDEFWNRLKEGKNCISEIPKDRWDWQSFFDEEKGKKESMYTKWGGFIDDMDKFDPLFFQISPKEAEEMDPQERLFLQEAYASIEDAGYTPTTLCESRKVGVFVGVMNGNYPTGATYWSIANRLSYLLNFQGPSVAVDTACSASLTAIHFALESLYSGTSECAIAGGVNLIVDPVHYMKLSALTMLSPSNQCKSFGDQADGFVDGEGVGAIVLKPLDKAIADGDHIYGVIKGSMMNAGGKTNGYTVPNPQAQAQLVADALQRANVHARTVSYLEAHGTGTELGDPIEVAGLTRAFEKDTQDKQFCALGSAKSNIGHCESAAGIAGVTKILLQLKHAQLVPSLHSRTLNPNIDFTKTPFVVQQELAEWRRPIVEINGTTNEYPRIAGISSFGAGGSNAHVIIEEYIPEEQKQSSLKITPQNPAIFVLSAKNAERLYEIVQQLLAFIQEHSLSDEHLADMAYTLQVGRVAMEERIAVIAGTMKELQQKLTAYVKGQEHIADLYRGQVNRNQEMLDILTSDDELEETIARWMERGKYSKLLDLWVKGLSIDWNKLYQEEQPGRISLPTYPFAKESYWTHARSVSSSTGVGVIHPFLHQNTSDFMEQRFSSMFTGQEFFLSDHVIKGQRVLPSAAYLEMARAAIQQATGGLDSERELEGLRFKNVVWTQPLAVGPEPVQAHIELYPEANGEIVFEIYSDSKQDRDQTTEIVHSQGSAVLCSIPDIPSFDLSVLQEQCSLRTLSAEQCYDAFKKMGVDYGPAHRGIEQILIGQEQVLAKLSLPSSVVKTQGQFGLHPSLLDAALQSSLGLMMATSDFSLILPFALEEMVIVGDCSSSMWALIRYREGSKAGDRVEKFDIDLCDENGNVQVRMKGFSTRKIANVSVRSEVEVPKASVPLEEEKAIDSSSLMEQATPYFKKLLSSVIKLPANKMEADASLEKYGVDSIVAMQMTKELEKQFGSLPKTLFFEYQTIKELTGYFLENYRENLMHILGMRENAEASLTQESEATMVDEVKAQTERRSKKRKSQRFASLRMETQPPKGALDIAIIGISGRYPQARNIHDFWKNLRDGKDCITEIPKDRWDHSLYFDEAKDKLGKSYSKWGGFIDGVDQFDPLFFHISPREAELMDPQERLFLQCVYETIEDAGYTRETLGKHEGLGGNVGVYVGVMYEEYQLYASAEQALGRALAIAGSPASIANRVSYFCNFHGPSMAVDTMCSSSLTGIHLACHSLQRGECEVAIAGGVNVSIHPNKYLYLSQGKFASSKGRCESFGEGGDGYVPGEGVGAVLLKPLARAIADGDHIYGVIKGSAINHGGKTNGYTVPNPHSQSRVIRRAFEEAGIHPRTVSYIEAHGTGTSLGDPIEIAGLTKTFQEYTKENQFCAIGSAKSNIGHGESAAGIAGLTKILLQMKYKRLVPSLHSRTLNPNIDFSKTPFVVQQELAEWKRPVIEIDGVTREYARIAGISSFGAGGANAHLVIEEYIEAEHRPPSSISSKNPAVIVLSAKNKDRLREQVQRLLSAIREQVLTDNDLAEIAYTLQVGREAMEERFAVIVKSISELEAKLTYYLKDEADSPDLFTGQVKRNKETMDVFAADEDLQQAIDTWITKGKYAKILQMWVQGLIFDWNKLYGDTKPRRISLPAYPFARERYWLPKVESQAIGLTAGEPAYLHPL
For B4, the “stoichiometry N” value [4] was 2.
